From PMC9382030 (Current biology : CB, 2022)

Target: T1, phosphatidylinositol 4-phosphate 5-kinase type-1 gamma (PIP5K1C) (human, UniProt O60331 1-668)
T1 construct: PIP5K1C, human; also called PIPK1 gamma 90; source: Sf9, baculovirus, purified (amylose resin, HRV-3C cleavage, SEC); not shown: His6, N-terminal, cleaved; MBP, N-terminal, cleaved
Test: pull-down; purified GST, GST-Arf6-T27N or GST-Arf6-Q67L bound to GSH agarose as bait; purified PIP5K1C 400 nM as prey, 1 h at 4 °C; 20 mM HEPES, 250 mM NaCl, 0.5 mM TCEP; SDS-PAGE and Coomassie staining
Details: both partners purified

T1 sequence (O60331 whole entry): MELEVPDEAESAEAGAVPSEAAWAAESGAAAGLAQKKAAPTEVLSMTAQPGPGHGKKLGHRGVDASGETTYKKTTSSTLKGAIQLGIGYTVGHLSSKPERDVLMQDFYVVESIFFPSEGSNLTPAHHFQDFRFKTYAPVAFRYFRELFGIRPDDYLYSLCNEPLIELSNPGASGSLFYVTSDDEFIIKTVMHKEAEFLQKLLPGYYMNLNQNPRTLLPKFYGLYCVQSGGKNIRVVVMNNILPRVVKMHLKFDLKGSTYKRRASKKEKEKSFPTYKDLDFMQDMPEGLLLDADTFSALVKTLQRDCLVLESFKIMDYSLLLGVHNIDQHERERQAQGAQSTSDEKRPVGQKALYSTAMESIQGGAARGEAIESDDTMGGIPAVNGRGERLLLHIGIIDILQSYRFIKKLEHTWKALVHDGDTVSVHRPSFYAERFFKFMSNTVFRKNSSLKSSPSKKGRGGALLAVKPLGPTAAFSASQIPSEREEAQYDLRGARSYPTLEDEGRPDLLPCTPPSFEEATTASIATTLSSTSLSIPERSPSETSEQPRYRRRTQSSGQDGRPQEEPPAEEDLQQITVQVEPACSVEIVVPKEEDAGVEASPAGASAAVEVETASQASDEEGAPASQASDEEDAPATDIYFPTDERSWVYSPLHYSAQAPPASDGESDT

binding result: binds
B1: GST-Arf6-Q67L (natural protein, human, UniProt P62330 1-175, looked up)
chain: MGKVLSKIFGNKEMRILMLGLDAAGKTTILYKLKLGQSVTTIPTVGFNVETVTYKNVKFNVWDVGGLDKIRPLWRHYYTGTQGLIFVVDCADRDRIDEARQELHRIINDREMRDAIILIFANKQDLPDAMKPHEIQEKLGLTRIRDRNWYVQPSCATSGDGLYEGLTWLTSNYKS
notes: Arf6, human; pGEX-6P-1 Arf6-Q67L; In the phosphoinositide conversion assay an N-terminal 6xHis form (pOCC3) was used instead; also called constitutively active Arf6; source: E. coli BL21, purified (GSH agarose, SEC); not shown: GST, N-terminal, kept
